How the values were obtained:
[1] = molecular target: the molecule itself; assay: crystal structure; synthetic peptide at 10 mg/ml; 0.2 M zinc acetate dihydrate, 0.1 M sodium cacodylate pH 6.5, 10% v/v 2-propanol; data processed in P1, six chains in the asymmetric unit
[2] = molecular target: the molecule itself; assay: SEC-MALS; Superdex 75 10/300 GL, phosphate buffer (20 mM PO4, 150 mM NaCl, pH 6.8), 100 ul FapF3-40 samples at 1 mg/ml, 0.25 ml/min; size exclusion profiles of wild type, R33A and R33E

B1: FapFCC synthetic peptide (predicted coiled-coil region of FapF, residues 3-40) (peptide)
chain: DVDIETLKQELLELKQRYEAQQKALAVLEQRVRQVEDQ
notes: FapF amyloid secretion transporter of Pseudomonas, coiled-coil region, residues 3-40; Parallel trimer; six chains (two trimers) in the asymmetric unit of the crystal; also called FapFCC peptide; periplasmic domain of FapF; source: synthetic peptide (ChinaPeptides, 97.5% purity)
- stoichiometry N [1]: 3

B2: recombinant FapF3-40 (FapFCC), wild type (domain or fragment, Pseudomonas UK4)
chain: B1 chain
notes: Cloned into pNIC28-Bsa4 (vector: Addgene plasmid no. 26103); also called recombinant FapFCC; not shown: His6, N-terminal, cleaved
- stoichiometry N [2]: 3

Source: publication PMC6173795, “The FapF Amyloid Secretion Transporter Possesses an Atypical Asymmetric Coiled Coil” (Journal of Molecular Biology, 2018)
